{
  "source": "patent US7241873B2",
  "about": "“Recombinant anti-osteopontin antibody and use thereof” (Juridical Foundation the Chemo-sero-therapeutic Research …, priority 2001, dated 2007)",
  "molecules": {"B1": {"name": "murine 2K1 antibody: murine monoclonal antibody from mice immunized with Peptide 1 (…) of human OPN; hybridoma FERM BP-7883 (antibody, V domains shown)", "VH": "QVQLQQSGAELVRPGASVKLSCKALGYTFTDYEMHWVKQTPVHGLEWIGAIHPGRGGTAYNQKFKGKATLTADKSSSTAYMELSSLTSEDSAVYYCTRITGYFDVWGAGTTVTVSS", "VL": "DVLMTQTPLSLPVSLGDQASISCRSSQSIVHSNGNTYLEWYLQKPGQSPKLLIYKVSNRFSGVPDRFSGSGSGTDFTLKISRVEAEDLGVYYCFQGSHVPLTFGAGTKLELKR", "notes": "murine monoclonal antibody from mice immunized with Peptide 1 (…) of human OPN; hybridoma FERM BP-7883"}},
  "key": {"[1]": {"tested_on": "adhesion of α9-transformed SW480 cell to vitronectin", "test": "Adhesion of α9-transformed SW480 cell to vitronectin", "format": "cell-based, human", "conditions": "FIG. 2B"}, "[2]": {"tested_on": "OPN-induced migration of human monocyte U937", "test": "OPN-induced U937 cell migration test (ChemoTx)", "format": "cell-based", "conditions": "U937, OPNs 10 μg/ml, antibody 50 μg/ml, FIG. 3b", "procedure": "A cell migration test using the U937 cell was performed by using a system ChemoTx101-8 (Neuro Probe Inc.). The cell was adjusted to 2×10^6 cells/ml with D-MEM containing 0.1% BSA, which was then applied to the upper layer on a filter (with a pore size of 8 μm), while the OPN protein was added to the lower layer.\nThe ChemoTx plate was left to stand in the presence of 5% CO2 at 37° C. for 4 hours. After the plate was left to stand, the filter was fixed with methanol, and was then stained with hematoxylin and eosin (H-E). The number of the cells migrating to the back face of the filter was counted with a microscope (magnification×400). The test was done in a triplicate manner, and the mean was used as data."}, "[3]": {"tested_on": "adhesion of human fibroblast TIG-7 to CHO/OPN-a", "test": "Inhibition of TIG-7 cell adhesion to OPN", "format": "cell-based", "procedure": "(§1) It was examined by the following method as to whether or not the murine monoclonal antibodies inhibited cell adhesion to OPN. First, a 96-well plate was precoated with various concentrations of the CHO/OPN-a at 4° C. overnight, which was then treated with 0.5% BSA in PBS under conditions of 37° C. for 10 minutes, so as to block non-specific adhesion. A human fibroblast TIG-7 or SW480 cell transformed with the cDNA of an integrin subunit α9 (referred to as “α9-transformed SW480 cell” hereinafter) was suspended in D-MEM containing 0.25% BSA; 200 μl of the resulting cell suspension (at a cell concentration of 5×10^4 cells/well) was injected in a 96-well plate precoated with the CHO/OPN-a or nOPN, in the presence or absence of various concentrations of the monoclonal antibodies or synthetic peptides, for incubation at 37° C. for one hour.\n(§2) The culture medium was discarded from the plate, and all the wells were rinsed twice with D-MEM containing 0.25% BSA. The adherent cells were fixed and stained with 0.5% crystal violet in 20% methanol for 30 minutes.\nAll the wells were rinsed three times with water, and the adherent cells were then solubilized into 20% acetic acid. The resulting supernatant recovered from each well was analyzed with an immunoreader, to measure the absorbance at 590 nm to determine the relative count of the cells adhering to the well. All the assays were done in a triplicate fashion, and at least three independent experiments were performed. The values shown represent mean at three independent experiments."}, "[4]": {"tested_on": "human OPN (GST-OPN-a, GST-OPN-b, GST-OPN-c, GST-N half, GST-C half, CHO/OPN-a, thrombin-cleaved OPN)", "test": "Western blotting of murine monoclonal antibodies with OPN and thrombin digestion products", "format": "binding", "procedure": "(§3) The binding potencies of the murine monoclonal antibodies 2K1 (referred to as “murine 2K1 antibody” hereinafter) and 4C1 recovered in the Example 2 to OPN and the thrombin digestion products thereof were tested by Western blotting method. […] Further, these monoclonal antibodies were not only bound to the recombinant OPNs of non-glycosylated type as generated in Escherichia coli but also reacted with the CHO/OPN-a protein of sugar-chain-bound type and the thrombin digestion products thereof (referred to as “thrombin-cleaved OPN” hereinafter)."}, "[5]": {"target": "T1, human OPN (GST-OPN-a, GST-OPN-b, GST-OPN-c, GST-N half, GST-C half, CHO/OPN-a, thrombin-cleaved OPN) (Homo sapiens, UniProt P10451)", "T1 construct": "cDNAs encoding the full-length human OPN-a and OPN-b individually including the respective signal peptide regions; made in house; host or cells: Escherichia coli JM109", "T1 sequence (P10451 17-168)": "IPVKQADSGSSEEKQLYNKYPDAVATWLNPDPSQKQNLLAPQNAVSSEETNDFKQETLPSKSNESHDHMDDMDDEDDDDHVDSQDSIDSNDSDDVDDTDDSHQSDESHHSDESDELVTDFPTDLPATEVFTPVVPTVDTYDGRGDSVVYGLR", "test": "Western blotting of murine monoclonal antibodies with OPN and thrombin digestion products", "format": "binding", "procedure": "as §3"}, "[6]": {"tested_on": "human peripheral monocyte migration toward thrombin-cleaved OPN", "test": "Migration of TNF-α-activated human peripheral monocyte toward thrombin-cleaved OPN (murine 2K1)", "format": "cell-based", "conditions": "for Mean migrating cell counts per 1 mm^3 (monocyte): thrombin-cleaved OPN 10 μg/mL", "procedure": "(§4) By the Ficoll method, a monocyte fraction and a neutrophil fraction were separated from normal human peripheral blood (P. M. Daftarian et al., (1996): Journal of Immunology, 157, 12–20). The intermediate layer between Ficoll and serum was collected and cultured in a flask at 37° C. for one hour. The resulting attached cell was used as monocyte. To the erythrocyte layer remaining after collection of the monocyte fraction was added a 5-fold volume of 3% dextran-PBS to aggregate erythrocyte, followed by centrifugation at 150×g and 4° C. for 5 minutes.\n(§5) The aggregated erythrocyte was precipitated, while in the resulting supernatant, neutrophil existed in suspended state. Then, the fraction was centrifuged at 500×g and ambient temperature for 20 minutes, to recover neutrophil. The monocyte and neutrophil as recovered in such manner were cultured overnight with human TNF-α (20 ng/mL) for activation. Then, the resulting activated monocyte and neutrophil were used for migration experiments.\n(§6) The migration experiments were done, using a 48-well micro chemotaxis chamber (manufactured by Neuro Probe Inc.). After various concentrations of the murine 2K1 antibody were added to the thrombin-cleaved OPN and were then preliminarily left to stand at 37° C. for 15 minutes, the mixtures were added to the lower chamber (to a final human OPN concentration of 10 μg/mL). Placing thereon a polycarbonate filter (pore size of 5 μm), further, a cell suspension (2×10^6 cells/mL) of 50 μL was added to the upper chamber.\n(§7) After culturing in the presence of 5% CO2 at 37° C. for 2 hours, the polycarbonate filter was removed to discard the cells on the upper surface of the filter; subsequently, the cells infiltrating to the back face of the filter were stained with Diff-Quick (manufactured by Baxter International Inc.). The stained cells were counted at a magnification×40. The results are shown as mean cell counts (cells/mm^3)±SD in 6 wells."}, "[7]": {"tested_on": "human peripheral neutrophil migration toward thrombin-cleaved OPN", "test": "Migration of TNF-α-activated human peripheral neutrophil toward thrombin-cleaved OPN", "format": "cell-based", "conditions": "for Mean migrating cell counts per 1 mm^3 (neutrophil): thrombin-cleaved OPN 10 μg/mL", "procedure": "as §4, §5, §6, §7"}, "[8]": {"tested_on": "adhesion of α9-transformed SW480 cell to nOPN", "test": "Adhesion of α9-transformed SW480 cell to nOPN", "format": "cell-based, human", "conditions": "FIG. 2B", "procedure": "as §1, §2\nAll the wells were rinsed three times with water, and the adherent cells were then solubilized into 20% acetic acid. The resulting supernatant recovered from each well was analyzed with an immunoreader, to measure the absorbance at 590 nm to determine the relative count of the cells adhering to the well. […]"}, "[9]": {"tested_on": "adhesion of TIG-7 cell to vitronectin (VN) or fibronectin (FN)", "test": "TIG-7 cell adhesion to vitronectin or fibronectin", "format": "cell-based, human"}},
  "data": [
    {"molecule": "B1", "values": [
      {"measurement": "inhibition of adhesion between α9-transformed SW480 cell and vitronectin", "setting": "[1]", "result": "never inhibited"},
      {"measurement": "inhibition of monocyte migration induced by CHO/OPN-a, thrombin-cleaved OPN and GST-N half", "setting": "[2]", "result": "apparently inhibits"},
      {"measurement": "effect on the inhibition of cell adhesion, comparison and concentration dependence", "setting": "[3]; TIG-7, FIG. 1C", "result": "comparative to the effect exerted by mAb53 and is concentration-dependent"},
      {"measurement": "inhibition of cell adhesion to OPN", "setting": "[3]; antibody 200 μg/ml, TIG-7, FIG. 1B", "result": "apparently inhibited"},
      {"measurement": "reactivity with GST-OPN-a, GST-OPN-b, GST-OPN-c", "setting": "[4]", "result": "reacted"},
      {"measurement": "reactivity with GST-N half", "setting": "[5]", "result": "reacted"},
      {"measurement": "inhibition of migration of TNF-α-activated human peripheral monocyte toward thrombin-cleaved OPN", "setting": "[6]", "result": "inhibited"},
      {"measurement": "Mean migrating cell counts per 1 mm^3 (monocyte)", "setting": "[6]; antibody 0.4 μg/mL", "result": "258.0 ± 71.9", "unit": "counts per 1 mm^3"},
      {"measurement": "Mean migrating cell counts per 1 mm^3 (monocyte)", "setting": "[6]; antibody 2 μg/mL", "result": "256.7 ± 66.5", "unit": "counts per 1 mm^3"},
      {"measurement": "Mean migrating cell counts per 1 mm^3 (monocyte)", "setting": "[6]; antibody 10 μg/mL", "result": "160.0 ± 56.9", "unit": "counts per 1 mm^3"},
      {"measurement": "Mean migrating cell counts per 1 mm^3 (monocyte)", "setting": "[6]; antibody 50 μg/mL", "result": "75.0 ± 55.4", "unit": "counts per 1 mm^3"},
      {"measurement": "inhibition of migration of TNF-α-activated human peripheral neutrophil toward thrombin-cleaved OPN", "setting": "[7]", "result": "inhibited"},
      {"measurement": "Mean migrating cell counts per 1 mm^3 (neutrophil)", "setting": "[7]; antibody 0.4 μg/mL", "result": "566.7 ± 60.2", "unit": "counts per 1 mm^3"},
      {"measurement": "Mean migrating cell counts per 1 mm^3 (neutrophil)", "setting": "[7]; antibody 2 μg/mL", "result": "550.0 ± 49.0", "unit": "counts per 1 mm^3"},
      {"measurement": "Mean migrating cell counts per 1 mm^3 (neutrophil)", "setting": "[7]; antibody 10 μg/mL", "result": "450.0 ± 90.8", "unit": "counts per 1 mm^3"},
      {"measurement": "Mean migrating cell counts per 1 mm^3 (neutrophil)", "setting": "[7]; antibody 50 μg/mL", "result": "426.7 ± 30.8", "unit": "counts per 1 mm^3"},
      {"measurement": "inhibition of adhesion between SW480 cell and nOPN", "setting": "[8]", "result": "inhibited"},
      {"measurement": "inhibition of adhesion of TIG-7 cell to vitronectin (VN) or fibronectin (FN)", "setting": "[9]", "result": "never inhibit"}
    ]}
  ]
}
